Experimental findings from article PMC5828360, “Identification and characterization of highly versatile peptide-vectors that bind non-competitively to the low-density lipoprotein receptor for in vivo targeting and delivery of small molecules and protein cargos” (PLoS ONE, 2018) are described below.

This assay has as its target human LDLR, endogenous on HUVEC (human (endogenous in HUVEC)) (UniProt P01130). The assay can be described thus: flow cytometry on cells; 1.10^10 phage on 1.10^6 HUVEC, 20 min on ice, without or with LDL at 0.5 mg/mL; anti-M13 (anti-PVIII) and anti-hLDLR antibodies; signal in zone Q2.

Chain of human LDLR, endogenous on HUVEC (human (endogenous in HUVEC)) (P01130 22-860): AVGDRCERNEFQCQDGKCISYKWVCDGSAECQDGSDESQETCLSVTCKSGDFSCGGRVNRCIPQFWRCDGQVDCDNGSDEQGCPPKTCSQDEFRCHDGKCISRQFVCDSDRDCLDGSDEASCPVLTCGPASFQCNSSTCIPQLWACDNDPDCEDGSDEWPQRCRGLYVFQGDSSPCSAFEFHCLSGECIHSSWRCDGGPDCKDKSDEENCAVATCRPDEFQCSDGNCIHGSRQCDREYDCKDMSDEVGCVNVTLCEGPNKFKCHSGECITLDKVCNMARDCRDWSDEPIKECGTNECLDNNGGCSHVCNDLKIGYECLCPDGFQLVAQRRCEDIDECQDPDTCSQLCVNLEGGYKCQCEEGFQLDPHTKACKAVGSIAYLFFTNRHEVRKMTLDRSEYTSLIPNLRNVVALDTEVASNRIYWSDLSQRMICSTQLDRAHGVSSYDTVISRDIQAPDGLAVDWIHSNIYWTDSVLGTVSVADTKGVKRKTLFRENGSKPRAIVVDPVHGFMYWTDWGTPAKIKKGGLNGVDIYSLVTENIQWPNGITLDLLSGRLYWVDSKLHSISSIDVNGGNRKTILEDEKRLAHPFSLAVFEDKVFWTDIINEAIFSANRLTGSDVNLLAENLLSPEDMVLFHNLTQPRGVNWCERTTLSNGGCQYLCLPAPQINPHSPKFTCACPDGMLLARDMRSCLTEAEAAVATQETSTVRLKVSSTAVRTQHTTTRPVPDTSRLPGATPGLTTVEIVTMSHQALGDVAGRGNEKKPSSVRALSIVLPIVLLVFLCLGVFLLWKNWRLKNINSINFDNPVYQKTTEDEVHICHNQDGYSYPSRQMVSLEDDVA

The substance “low-density lipoprotein (LDL), P04114 28-4563” had a percent reduction of the VH549 phage signal (Q2) with LDL at 0.5 mg/mL of 56%.
